# Measurements published in article PMC3020594.
# B1: human cytidine deaminase (CDA) (Homo sapiens; Y33G) (protein)
# chain: MAQKRPACTLKPECVQQLLVCSQEAKKSAYCPGSHFPVGAALLTQEGRIFKGCNIENACYPLGICAERTAIQKAVSEGYKDFRAIAIASDMQDDFISPCGACRQVMREFGTNWPVYMTKPDGTYIVMTVQELLPSSFGPEDLQKTQ
# Legend:
# purified protein [1] = substrate: Nc1ccn([C@H]2C[C@H](O)[C@@H](CO)O2)c(=O)n1; assay: purified protein; settings: zinc active site
# purified protein [2] = substrate: Nc1ncn([C@H]2C[C@H](O)[C@@H](CO)O2)c(=O)n1; assay: purified protein; assay type: biochemical, Homo sapiens; settings: zinc active site
protein,measurement,setting,value
B1,Km,purified protein [1],47.6 µM
same,Vmax,purified protein [1],0.127 µmol/min/mg
same,Km,purified protein [2],349.0 µM
same,Vmax,purified protein [2],0.174 µmol/min/mg
